Reference: patent US20240101645A1 (HENRY M JACKSON FOUNDATION FOR THE ADVANCEMENT OF MILITARY …, published 2024)

Key:
[1] = molecular target: T1, MERS-CoV spike antigens (bead panel) (MERS-CoV, UniProt K9N5Q8 18-1296); test: multiplex bead assay
T1 sequence: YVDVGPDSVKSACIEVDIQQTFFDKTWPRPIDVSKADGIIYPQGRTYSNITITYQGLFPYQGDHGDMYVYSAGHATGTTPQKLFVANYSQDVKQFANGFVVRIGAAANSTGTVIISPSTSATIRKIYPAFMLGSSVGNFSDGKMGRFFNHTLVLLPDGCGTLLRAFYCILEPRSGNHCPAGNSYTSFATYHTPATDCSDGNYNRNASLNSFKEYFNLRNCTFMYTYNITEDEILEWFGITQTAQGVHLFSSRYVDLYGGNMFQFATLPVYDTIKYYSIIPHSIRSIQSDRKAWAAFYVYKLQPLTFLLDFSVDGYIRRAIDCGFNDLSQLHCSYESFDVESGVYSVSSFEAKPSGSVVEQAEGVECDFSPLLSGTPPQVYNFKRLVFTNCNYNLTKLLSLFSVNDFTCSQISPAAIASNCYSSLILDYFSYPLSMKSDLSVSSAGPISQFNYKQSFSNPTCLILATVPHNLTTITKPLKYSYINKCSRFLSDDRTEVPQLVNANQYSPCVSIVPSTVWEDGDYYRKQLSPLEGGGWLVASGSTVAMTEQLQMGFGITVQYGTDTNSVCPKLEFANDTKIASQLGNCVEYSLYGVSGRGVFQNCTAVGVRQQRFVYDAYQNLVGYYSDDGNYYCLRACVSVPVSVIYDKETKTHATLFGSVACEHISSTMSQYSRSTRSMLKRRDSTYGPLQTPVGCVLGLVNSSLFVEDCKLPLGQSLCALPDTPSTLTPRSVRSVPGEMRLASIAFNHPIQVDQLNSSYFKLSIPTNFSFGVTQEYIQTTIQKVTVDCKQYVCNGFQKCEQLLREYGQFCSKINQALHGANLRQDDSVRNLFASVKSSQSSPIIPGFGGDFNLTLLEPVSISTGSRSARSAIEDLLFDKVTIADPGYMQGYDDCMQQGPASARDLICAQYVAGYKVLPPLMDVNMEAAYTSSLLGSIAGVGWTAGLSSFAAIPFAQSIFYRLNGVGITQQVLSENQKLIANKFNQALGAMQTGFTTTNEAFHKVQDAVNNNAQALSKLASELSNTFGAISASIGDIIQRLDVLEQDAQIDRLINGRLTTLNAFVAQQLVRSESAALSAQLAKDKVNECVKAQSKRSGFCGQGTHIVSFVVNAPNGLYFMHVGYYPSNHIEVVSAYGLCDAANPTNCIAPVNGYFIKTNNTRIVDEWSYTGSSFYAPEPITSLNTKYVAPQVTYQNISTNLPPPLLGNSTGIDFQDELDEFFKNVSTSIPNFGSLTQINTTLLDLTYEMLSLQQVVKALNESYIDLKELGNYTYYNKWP

[2] = molecular target: T2, HCoV-229E spike antigens (bead panel) (HCoV-229E, UniProt P15423 16-1115); test: multiplex bead assay
T2 sequence: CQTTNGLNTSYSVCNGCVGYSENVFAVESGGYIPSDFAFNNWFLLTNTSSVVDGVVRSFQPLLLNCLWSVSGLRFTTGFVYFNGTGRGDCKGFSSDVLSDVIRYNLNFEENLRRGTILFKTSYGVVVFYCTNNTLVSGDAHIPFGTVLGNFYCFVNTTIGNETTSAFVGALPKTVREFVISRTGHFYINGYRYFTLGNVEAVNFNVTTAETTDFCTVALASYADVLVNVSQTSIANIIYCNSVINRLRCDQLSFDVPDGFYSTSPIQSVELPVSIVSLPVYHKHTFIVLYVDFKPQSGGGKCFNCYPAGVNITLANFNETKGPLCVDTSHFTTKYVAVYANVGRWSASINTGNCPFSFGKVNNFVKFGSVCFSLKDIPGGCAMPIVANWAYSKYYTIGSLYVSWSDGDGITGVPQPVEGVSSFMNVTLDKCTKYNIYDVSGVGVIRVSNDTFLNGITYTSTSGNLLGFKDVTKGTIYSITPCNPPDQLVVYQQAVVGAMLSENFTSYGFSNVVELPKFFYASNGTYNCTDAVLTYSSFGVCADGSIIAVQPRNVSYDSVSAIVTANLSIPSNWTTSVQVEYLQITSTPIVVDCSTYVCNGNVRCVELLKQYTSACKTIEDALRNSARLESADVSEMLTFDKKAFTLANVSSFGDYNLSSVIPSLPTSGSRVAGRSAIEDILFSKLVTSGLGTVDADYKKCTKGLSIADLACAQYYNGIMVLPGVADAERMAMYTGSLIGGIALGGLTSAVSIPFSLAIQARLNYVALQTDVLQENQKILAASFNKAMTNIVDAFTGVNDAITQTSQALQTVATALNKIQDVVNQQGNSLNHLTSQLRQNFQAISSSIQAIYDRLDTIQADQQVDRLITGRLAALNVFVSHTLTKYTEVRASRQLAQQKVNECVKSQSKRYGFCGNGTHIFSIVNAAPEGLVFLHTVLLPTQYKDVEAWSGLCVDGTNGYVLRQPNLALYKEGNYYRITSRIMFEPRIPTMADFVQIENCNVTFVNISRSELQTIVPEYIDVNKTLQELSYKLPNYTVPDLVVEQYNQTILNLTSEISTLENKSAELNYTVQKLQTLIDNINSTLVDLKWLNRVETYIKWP

[3] = molecular target: T3, HCoV-HKU1 spike antigens (bead panel) (HCoV-HKU1, UniProt Q5MQD0 13-1300); test: multiplex bead assay
T3 sequence: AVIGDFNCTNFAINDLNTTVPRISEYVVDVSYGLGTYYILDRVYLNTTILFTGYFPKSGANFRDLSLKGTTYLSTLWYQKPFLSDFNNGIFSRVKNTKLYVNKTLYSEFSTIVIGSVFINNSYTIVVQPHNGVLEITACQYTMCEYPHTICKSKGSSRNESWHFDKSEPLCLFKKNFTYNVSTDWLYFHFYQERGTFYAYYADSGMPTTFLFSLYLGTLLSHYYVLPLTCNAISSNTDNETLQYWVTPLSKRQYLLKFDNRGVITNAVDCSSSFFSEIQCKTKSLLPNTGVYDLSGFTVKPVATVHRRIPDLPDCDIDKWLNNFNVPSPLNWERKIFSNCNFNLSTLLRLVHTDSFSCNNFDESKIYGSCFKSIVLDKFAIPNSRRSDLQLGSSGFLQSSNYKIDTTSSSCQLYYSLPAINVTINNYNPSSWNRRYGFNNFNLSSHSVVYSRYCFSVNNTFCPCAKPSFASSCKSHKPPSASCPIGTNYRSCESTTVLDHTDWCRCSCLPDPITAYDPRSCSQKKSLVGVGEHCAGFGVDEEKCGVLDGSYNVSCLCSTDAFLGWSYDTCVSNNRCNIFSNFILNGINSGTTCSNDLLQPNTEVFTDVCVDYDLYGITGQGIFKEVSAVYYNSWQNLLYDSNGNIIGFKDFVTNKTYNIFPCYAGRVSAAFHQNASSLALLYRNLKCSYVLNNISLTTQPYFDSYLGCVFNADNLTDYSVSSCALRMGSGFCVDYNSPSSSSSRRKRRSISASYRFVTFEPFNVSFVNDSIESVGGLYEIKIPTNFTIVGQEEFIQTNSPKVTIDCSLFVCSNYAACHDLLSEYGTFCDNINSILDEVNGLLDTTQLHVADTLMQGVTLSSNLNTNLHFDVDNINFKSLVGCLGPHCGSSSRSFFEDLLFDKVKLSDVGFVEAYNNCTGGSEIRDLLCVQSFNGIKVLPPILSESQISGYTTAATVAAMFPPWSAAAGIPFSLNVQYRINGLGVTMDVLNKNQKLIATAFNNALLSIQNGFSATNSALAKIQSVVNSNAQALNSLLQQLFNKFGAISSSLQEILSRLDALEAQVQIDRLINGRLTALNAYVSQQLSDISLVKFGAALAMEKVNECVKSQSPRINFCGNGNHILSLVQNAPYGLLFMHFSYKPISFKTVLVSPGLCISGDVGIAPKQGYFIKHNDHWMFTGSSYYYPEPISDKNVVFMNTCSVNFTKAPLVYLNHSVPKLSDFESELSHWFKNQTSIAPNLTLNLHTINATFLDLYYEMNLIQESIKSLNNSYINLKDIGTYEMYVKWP

[4] = molecular target: SARS-CoV-2 S on pseudovirions (Wuhan Hu-1 / IL1/2020, last 18 amino acids removed) (SARS-CoV-2, UniProt P0DTC2 14-1273); test: cell-based or functional assay
[5] = molecular target: SARS-CoV-1 spike antigens (bead panel) (SARS-CoV-1, UniProt P59594 14-1195); test: multiplex bead assay

B1: COV_1131 (antibody, V domains shown)
VH: QVQLQESGPGLVKPSETLSLTCSVSGGSISSYYWSWIRQPPGKGLEWIGYISYSGSTNYNPSLKSRVTISVDTSKNQFSLKLSSVTAADTAVYYCARLGFGGIYPSLYDAFDIWGQGTMVTVSS
VL: DIQMTQSPSSLSASVGDRVTITCRASQTISSYLNWYQQKPGKAPNLLIYDASSLQRGVPSRFSGSGSGTDFTLTISSLQPEDFATYYCQQSYSTPRTFGQGTKVEIKR
notes: human IgG1
binding result [1]: no binding
binding result [2]: no binding
binding result [3]: no binding
Mean IC50, pSV neutralization [4]: ≥ 25 µg/ml
Mean IC80, pSV neutralization [4]: ≥ 25 µg/ml

B2: COV_1032 (antibody, V domains shown)
VH: QVHLQESGPGLVKPSETLSLTCTVSGGSISSYYWSWIRQPPGKGLEWIGYIYDSGSTNYNPSLKSRVTISVDTSKNQFSLKLSSVTAADTAVYYCARSVRGVTIDYWGQGTLVTVSS
VL: DIQMTQSPSSLSASVGDRVTITCRASQSISNSISSYLNWYQKKPGKAPKLLIYAASSLQSGVPSRFSGSGSGTDFTLTISSLQPEDFATYYCQQSYSTPTTFGQGTKVEIKR
notes: human IgG1
binding result [1]: no binding
binding result [2]: no binding
Mean IC50, pSV neutralization [4]: 2.5 µg/ml
Mean IC80, pSV neutralization [4]: ≥ 25 µg/ml

B3: COV_1063 (antibody, V domains shown)
VH: EEKLVESGGDLVQPGGSLRISCEVSGFSLSKYWMNWVRQAPGKGLQWVANIEEDGSERNYADSVKGRFTISRDNARNSLYLQMNSLRVEDTAVYLCTAGHYAGPWGWGQGTLVTVSS
VL: DIQMTQSPSSLSASVGDRVTVTCRASQDIGHYLAWYQQKPGKTPNLLIYDAFNLESGVPPRFGGSGSGTDFTLTISSLQPEDAATYYCQKYDSVPWTFGQGTKVEIKR
notes: human IgG1
binding result [5]: no binding
Mean IC50, pSV neutralization [4]: ≥ 25 µg/ml
Mean IC80, pSV neutralization [4]: ≥ 25 µg/ml

B4: COV_1116 (antibody, V domains shown)
VH: EVQLVESGGGLVKPGGSLRLSCAASGFTFSSYSMNWVRQAPGKGLEWVSSISSSNAYIYSADSVKGRFTISRDNAKNSLYLQMNSLRADDTAVYYCARGGRGLSSSPGRLDYYYGLDVWGQGTTVTVSS
VL: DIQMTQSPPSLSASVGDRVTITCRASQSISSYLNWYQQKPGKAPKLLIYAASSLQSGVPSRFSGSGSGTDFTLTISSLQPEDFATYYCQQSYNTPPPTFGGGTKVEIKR
notes: human IgG1
binding result [1]: no binding
binding result [2]: no binding
binding result [3]: no binding
Mean IC50, pSV neutralization [4]: 6.99 µg/ml
Mean IC80, pSV neutralization [4]: ≥ 25 µg/ml

B5: COV_2064 (antibody, V domains shown)
VH: EVQLVESGGGLVQPGGSLRLSCTASGFTFNNNWMHWVRQVPGKGLVWVSRINTDESSTSYADSVKGRFIISRDNAKNTLYLQMNSLRVEDTAVYYCARSTAQYDIWTGYYYYMDVWGKGTTVTVSS
VL: DIQMTQSPSTLSASVGDRVTISCRASQSISTWLAWYQQKPGKAPNLLIYGASNLGSGVPSRFSGGGSGTEFTLTISSLQSDDFATYYCQRYNSFPYTFGQGTKLEIKR
notes: human IgG1
binding result [1]: no binding
binding result [2]: no binding
binding result [3]: no binding
Mean IC50, pSV neutralization [4]: ≥ 25 µg/ml
Mean IC80, pSV neutralization [4]: ≥ 25 µg/ml
